Laboratory results: patent US20040180417A1, “Secretase/sheddase with asp-ase activity on the beta-site app-cleaving enzyme (bace, asp2, memepsin2)” (priority 2000, published 2004)

Experiments:
[proBACES]FG/V5 = In vitro PC-mediated processing of proBACES (Western blot); type: biochemical, mouse; conditions: equivalent hydrolytic activities of PCs, 1-4 hours incubation
[1] = system: proBACE processing by PC-like enzyme; test: proBACE processing in HK293 cells co-expressing [BACEF]FG/V5 and PC-inhibitors (pulse-chase, immunoprecipitation, SDS-PAGE); type: cell-based, human; conditions: co-expression; 20 min [35S]Met pulse, 90 min chase; FG immunoprecipitation
Description: FIG. 1: HK293 cells were transiently co-transfected with either ([BACEF]FG/V5+BDNF) [control, CTL] (A,C) or ([BACEF]FG/V5+α1-PDX) (B,D) cDNAs. Two days post-transfections the cells were pulse-labeled in the absence or presence of […] BFA for 15 min with [^35S]Met and then chased for 1 or 2h. Cell lysates were immunoprecipitated with either the FG or V5 mAbs and analysed by SDS-PAGE on 8% tricine gels. The migration position of the 53 kDa molecular mass standard and those of proBACE (pBACE) and BACE are emphasized.
FIG. 2: [A] HK293 cells were transiently co-transfected with cDNAs coding for either ([BACEF]FG/V5+BDNF) [control, CTL], ([BACEF-R45A]FG/V5+BDNF) or ([BACEF-R42A]FG/V5+BDNF) or ([BACEF]FG/V5+either α1-PDX, the prosegments of furin, PC5, PC7, SKI-1, furin-mutated (α2M-F) or wild type (α2M) α2-macroglobulin. The cells were pulse-labeled for 20 min with [^35S]Met and then chased for 90 min. Cell lysates were immunoprecipitated with the FG mAb and analysed by SDS-PAGE on 8% tricine gels. [B] HK293 cells were transiently co-transfected with cDNAs coding for either ([BACEF]FG/V5+BDNF) [CTL], ([BACEF]FG/V5+furin) or ([BACEF]FG/V5+α1-PDX). The cells were then pulse-labeled for 2h with Na2[^35SO4]. Cell lysates were immunoprecipitated with the FG or V5 mAbs and analysed by SDS-PAGE on 8% tricine gels. […]

B1: PC7 (protein)
chain: SIHFNDPKYPQQWHLNNRRSPGRDINVTGVWERNVTGRGVTVVVVDDGVEHTVQDIAPNYSPEGSYDLNSNDPDPMPHPDEENGNHHGTRCAGEIAAVPNNSFCAVGVAYGSRIAGIRVLDGPLTDSMEAVAFNKHYQINDIYSCSWGPDDDGKTVDGPHQLGKAALQHGVMAGRQGFGSIFVVASGNGGQHNDNCNYDGYANSIYTVTIGAVDEEGRMPFYAEECASMLAVTFSGGDKMLRSIVTTDWDLQKGTGCTEGHTGTSAAAPLAAGMIALMLQVRPCLTWRDVQHIIVFTATQYEDHRADWLTNEAGFSHSHQHGFGLLNAWRLVNAAKIWTSVPYLASYVSPMLKENKAVPRSPHSLEVLWNVSRTDLEMSGLKTLEHVAVTVSITHPRRGSLELKLFCPSGMMSLIGAPRSMDSDPNGFNDWTFSTVRCWGERARGVYRLVIRDVGDEPLQVGILQQWQLTLYGSTWSPVDIKDRQSLLESAMSGKYLHDDFTLPCPPGLKIPEEDGYSITPNTLKT
ability to process proBACE into BACE ([proBACES]FG/V5): barely, if at all, able

B2: α2M: wild type α2-macroglobulin (protein, UniProt P01023 24-1474, looked up)
Alpha-2-macroglobulin: SVSGKPQYMVLVPSLLHTETTEKGCVLLSYLNETVTVSASLESVRGNRSLFTDLEAENDVLHCVAFAVPKSSSNEEVMFLTVQVKGPTQEFKKRTTVMVKNEDSLVFVQTDKSIYKPGQTVKFRVVSMDENFHPLNELIPLVYIQDPKGNRIAQWQSFQLEGGLKQFSFPLSSEPFQGSYKVVVQKKSGGRTEHPFTVEEFVLPKFEVQVTVPKIITILEEEMNVSVCGLYTYGKPVPGHVTVSICRKYSDASDCHGEDSQAFCEKFSGQLNSHGCFYQQVKTKVFQLKRKEYEMKLHTEAQIQEEGTVVELTGRQSSEITRTITKLSFVKVDSHFRQGIPFFGQVRLVDGKGVPIPNKVIFIRGNEANYYSNATTDEHGLVQFSINTTNVMGTSLTVRVNYKDRSPCYGYQWVSEEHEEAHHTAYLVFSPSKSFVHLEPMSHELPCGHTQTVQAHYILNGGTLLGLKKLSFYYLIMAKGGIVRTGTHGLLVKQEDMKGHFSISIPVKSDIAPVARLLIYAVLPTGDVIGDSAKYDVENCLANKVDLSFSPSQSLPASHAHLRVTAAPQSVCALRAVDQSVLLMKPDAELSASSVYNLLPEKDLTGFPGPLNDQDNEDCINRHNVYINGITYTPVSSTNEKDMYSFLEDMGLKAFTNSKIRKPKMCPQLQQYEMHGPEGLRVGFYESDVMGRGHARLVHVEEPHTETVRKYFPETWIWDLVVVNSAGVAEVGVTVPDTITEWKAGAFCLSEDAGLGISSTASLRAFQPFFVELTMPYSVIRGEAFTLKATVLNYLPKCIRVSVQLEASPAFLAVPVEKEQAPHCICANGRQTVSWAVTPKSLGNVNFTVSAEALESQELCGTEVPSVPEHGRKDTVIKPLLVEPEGLEKETTFNSLLCPSGGEVSEELSLKLPPNVVEESARASVSVLGDILGSAMQNTQNLLQMPYGCGEQNMVLFAPNIYVLDYLNETQQLTPEIKSKAIGYLNTGYQRQLNYKHYDGSYSTFGERYGRNQGNTWLTAFVLKTFAQARAYIFIDEAHITQALIWLSQRQKDNGCFRSSGSLLNNAIKGGVEDEVTLSAYITIALLEIPLTVTHPVVRNALFCLESAWKTAQEGDHGSHVYTKALLAYAFALAGNQDKRKEVLKSLNEEAVKKDNSVHWERPQKPKAPVGHFYEPQAPSAEVEMTSYVLLAYLTAQPAPTSEDLTSATNIVKWITKQQNAQGGFSSTQDTVVALHALSKYGAATFTRTGKAAQVTIQSSGTFSSKFQVDNNNRLLLQQVSLPELPGEYSMKVTGEGCVYLQTSLKYNILPEKEEFPFALGVQTLPQTCDEPKAHTSFQISLSVSYTGSRSASNMAIVDVKMVSGFIPLKPTVKMLERSNHVSRTEVSSNHVLIYLDKVSNQTLSLFFTVLQDVPVRDLKPAIVKVYDYYETDEFAIAEYNAPCSKDLGNA
quantity of the 72 kDa proBACE (pBACEG, Golgi form) [1]: barely detectable
